Non-standard residues stand in square brackets, D forms with d. No end group written: not given here. pY = N[C@@H](Cc1ccc(OP(=O)(O)O)cc1)C(=O)O
Tests used:
[1] = target: T1, Syk tandem SH2 (tSH2) fragment, amino acids 9-264 (UniProt P43405 9-264); experiment: SPR
[2] = target: T1, Syk tandem SH2 (tSH2) fragment, amino …; experiment: thermal shift assay

NPD[pY]EPIRKGQRDL[pY]SGLNQR [pITAM peptide from CD3ε chain, doubly phosphorylated]
IC50 [1]: 15 µM | Kd [2]: 4.2 ± 0.68 µM
